The target of experiment [1] is T1, hSIRPα expressed on primary human cells (human, UniProt P78324 31-504).
T1 construct: whole, on cells; also called hSIRPα on primary human CD14+ monocytes; on primary human granulocytes
Nature of the experiment: flow cytometry on primary human granulocytes, FITC goat-anti-mouse Ig. As for the experimental part:
To confirm the functionality of hSIRPα.50A in primary immune cells, granulocytes (e.g. effector cells) were isolated from healthy human donor EDTA blood. First, the EDTA blood of each donor was pooled and centrifuged at 300 g for 6 minutes at 20° C. Next, plasma was removed by aspiration, and the remaining blood cells were gently resuspended. Cells were recovered in red blood cell (RBC) lysis buffer (155 mM NH4Cl; 10 mM KHCO3) and incubated for 10 minutes on ice. Next, cells were centrifuged at 300 g for 7 minutes. Supernatants containing lysed RBCs were removed by aspiration, and the remaining blood cells were gently resuspended in RBC lysis buffer and kept on ice for 1 minute. […] The percentage of granulocytes present in the cell suspension was determined by flow cytometry on the FACSCanto II (BD Biosciences) based on high forward scatter (FSC) and side scatter (SSC). Binding of hSIRPα.50A to human granulocytes was assessed by incubating the cells for 30 minutes at 4° C. with hSIRPα.50A antibody (25 μg/mL and dilutions thereof) in PBS/1% BSA containing 10% autologous serum (PBS/1% BSA/10% serum). […] After this labeling procedure, cells were washed two times, resuspended in PBS/1% BSA/10% serum and analysed by flow cytometry on the FACSCanto II (BD Biosciences). Data were processed and analysed with FlowJo V10 software (FlowJo, LLC).

In experiment [2] the target is T2, hSIRPβ1 transcript variant 3/hSIRPβL (human, UniProt Q5TFQ8 30-398).
T2 construct: also called human SIRPβL
T2 sequence (Q5TFQ8 30-398 limits assumed, change not shown): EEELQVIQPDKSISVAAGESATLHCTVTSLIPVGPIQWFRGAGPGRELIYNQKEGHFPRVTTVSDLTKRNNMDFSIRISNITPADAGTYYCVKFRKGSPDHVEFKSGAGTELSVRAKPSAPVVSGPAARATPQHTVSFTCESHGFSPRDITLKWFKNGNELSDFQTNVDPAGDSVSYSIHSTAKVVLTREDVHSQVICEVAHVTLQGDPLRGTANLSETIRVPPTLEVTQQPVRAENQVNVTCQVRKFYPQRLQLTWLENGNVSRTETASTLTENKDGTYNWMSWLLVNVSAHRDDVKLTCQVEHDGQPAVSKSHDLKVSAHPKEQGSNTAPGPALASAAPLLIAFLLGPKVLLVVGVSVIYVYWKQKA
Briefly: CELISA, CHO-K1 transfectants; average of two experiments. On the procedure: The binding specificity of antibodies hSIRPα.40A and hSIRPα.50A to hSIRPα were compared in a CELISA format. In short, CHO-K1 cells were transiently transfected with hSIRPαV1, hSIRPαV2, hSIRPβ1, hSIRPβL, and hSIRPγ cDNAs. Subsequently, hSIRPα binding was assessed by CELISA using CHO-K1.hSIRPαV1, CHO-K1.hSIRPαV2, CHO-K1.hSIRPβ1, CHO-K1.hSIRPβL, and CHO-K1.hSIRPγ cells. Detection of bound antibody was done with goat-anti-mouse IgG-HRP (Southern Biotech).

The next experiment has as its target T3, human SIRPβ1 (human, UniProt O00241 30-398).
T3 construct: also called hSIRPβ1
Briefly: CELISA, CHO-K1 transfectants. As for the experimental part: Reactivity was confirmed using CHO-K1 cells (ATCC CCL-61) expressing a cDNA encoding the full length open reading frame of hSIRPαV1, hSIRPαV1(P74A), hSIRPαV2, and hSIRPβ1 subcloned into the pCI-neo vector (Promega, Madison, Wis.). CHO-K1.hSIRPαV1, CHO-K1.hSIRPαV1(P74A), CHO-K1.hSIRPαV2, and CHO-K1.hSIRPβ1 cells were seeded in culture medium (DMEM-F12 (Gibco) supplemented with 5% New Born Calf Serum (BioWest) and Pen/Strep (Gibco)) in 96-well flat-bottom tissue culture plates and incubated at 37° C., 5% CO₂ and 95% humidity for 24 hours. Subsequently, culture medium was removed and cells were incubated for 1 hour at 37° C., 5% CO₂ and 95% humidity with purified hSIRPα antibodies (used at 10 μg/mL and dilutions thereof). Next, cells were washed with PBS-T and incubated for 1 hour at 37° C., 5% CO₂ and 95% humidity with goat-anti-mouse IgG-HRP (Southern Biotech). Subsequently, cells were washed three times with PBS-T and immunoreactivity against hSIRPαV1, hSIRPαV1(P74A), hSIRPαV2, and hSIRPβ1 was visualized with TMB Stabilized Chromogen (Invitrogen). Reactions were stopped with 0.5 M H₂SO₄ and absorbances were read at 450 and 610 nm.

The target in experiment [3] is T1, hSIRPα expressed on primary human cells. Briefly: flow cytometry on CD14+ enriched monocytes, human donor 2, AF647 goat-anti-mouse IgG. As for the experimental part: (§1) Next, the binding of hSIRPα.40A to hSIRPα expressed on primary human CD14⁺ monocytes was investigated. In addition, the ability of hSIRPα.40A to block the interaction between hSIRPα and recombinant hCD47/Fc-protein was assessed. For this purpose, CD14+ monocytes were isolated from Ficoll-purified human peripheral blood mononuclear cells (PBMCs) using RosetteSep human monocyte enrichment cocktail (Stemcell). The percentage of monocytes present after the enrichment was determined by flow cytometry on the FACSVerse (BD Biosciences) based on CD14 staining using an APC-Cy7-conjugated mouse-anti-human CD14 detection antibody (BD Biosciences). […] After this labeling procedure, cells were washed two times, resuspended in PBS/1% BSA containing 0.1 μg/mL DAPI (BioLegend), and analysed by flow cytometry on the FACSVerse (BD Biosciences). Data were processed and analysed with FlowJo V10 software (FlowJo, LLC).
(§2) To assess the blocking ability of hSIRPα.40A, CD14+ enriched monocytes cells were seeded in 96-well round bottomed tissue culture plates and incubated for 45 minutes with FcR Blocking Reagent (Miltenyi Biotec) and hSIRPα.40A antibody (20 μg/mL and dilutions thereof) in PBS/1% BSA at 4° C. […] After this labeling procedure, cells were washed two times, resuspended in PBS/1% BSA containing 0.1 μg/mL DAPI (BioLegend), and analysed by flow cytometry on the FACSVerse (BD Biosciences). […]

Experiment [4] shares this target. Briefly: flow cytometry on CD14+ enriched monocytes, human donor 1, AF647 goat-anti-mouse IgG. As for the experimental part:
as §1, §2

T1 sequence (P78324 31-504): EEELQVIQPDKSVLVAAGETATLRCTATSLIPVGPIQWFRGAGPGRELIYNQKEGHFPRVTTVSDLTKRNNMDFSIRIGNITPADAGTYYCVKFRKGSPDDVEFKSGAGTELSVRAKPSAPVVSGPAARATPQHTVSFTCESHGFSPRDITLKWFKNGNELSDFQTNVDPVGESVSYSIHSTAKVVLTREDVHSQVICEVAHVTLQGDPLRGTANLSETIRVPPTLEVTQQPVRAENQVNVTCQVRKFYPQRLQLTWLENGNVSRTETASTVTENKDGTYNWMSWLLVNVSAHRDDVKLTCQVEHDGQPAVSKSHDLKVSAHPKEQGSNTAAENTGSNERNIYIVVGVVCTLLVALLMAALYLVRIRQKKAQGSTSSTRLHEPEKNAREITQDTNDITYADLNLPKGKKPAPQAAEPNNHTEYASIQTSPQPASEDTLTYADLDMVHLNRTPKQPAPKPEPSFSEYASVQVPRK
T3 sequence (O00241 30-398 limits assumed): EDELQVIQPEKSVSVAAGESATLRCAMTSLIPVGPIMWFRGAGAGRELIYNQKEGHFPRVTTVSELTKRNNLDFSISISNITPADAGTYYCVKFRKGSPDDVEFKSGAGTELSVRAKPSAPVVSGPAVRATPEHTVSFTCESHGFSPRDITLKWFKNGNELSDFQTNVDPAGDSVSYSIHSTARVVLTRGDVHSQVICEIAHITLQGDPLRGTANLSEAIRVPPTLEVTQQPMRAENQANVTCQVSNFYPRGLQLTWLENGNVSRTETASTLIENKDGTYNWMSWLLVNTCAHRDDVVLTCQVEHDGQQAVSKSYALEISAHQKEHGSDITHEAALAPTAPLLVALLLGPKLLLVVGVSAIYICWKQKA

B1: hSIRPα.50A (antibody, V domains shown)
VH: QVQLQQSGPELVKPGASVRISCKASGFTFTNYYIHWVKQRPGQGLEWIGWIYPGNVNTKYNEKFKAKATLTADKSSTTAYMQLSSLASEDSAVYFCARPTIIATDFDVWGAGTTVTVSS
VL: DIVMTQSHKFMSTSVGDRVNITCKASQGVGTAVGWYQQKPGQSPRLLIYWASTRHTGVPDRFTGSGSGTDFSLAISNVQSEDLADYFCQQYSTYPFTFGGGTNLEIK
notes: light chain constant domain not tied; also called mouse hSIRPα.50A; hSIRPα.50A.mIgG1
For the molecule B1, the 50% effective concentration (EC50 (read off the curve)) in experiment [1] is approximately 3 nM. The same molecule gave an EC50 in experiment [2] of 0.632 nM.

B2: KWAR23 (antibody, V domains shown)
VH: EVQLQQSGAELVKPGASVKLSCTASGFNIKDYYIHWVQQRTEQGLEWIGRIDPEDGETKYAPKFQDKATITADTSSNTAYLHLSSLTSEDTAVYYCARWGAYWGQGTLVTVSS
VL: QIVLTQSPAIMSASPGEKVTLTCSASSSVSSSYLYWYQQKPGSSPKLWIYSTSNLASGVPARFSGSGSGTSYSLTISSMEAEDAASYFCHQWSSYPRTFGAGTKLELK
B2 returned an EC50 with human SIRPβ1 of 0.033 nM.

B3: hSIRPα.40A (antibody, mouse IgG1, kappa, V domains shown)
VH: EVQFQQSGTVLARPGTSVKMSCKASGSTFTSYWMHWVKQGPGQGLQWIGAIYPVNNDTTYNQKFKGKAELTVVTSTSTAYMEVSSLTNEDSAVYYCTRSFYYSLDAAWFVYWGQGTLVTVSA
VL: DIQMTQSPSSLSASLGERVSLTCRASQDIGSRLNWLQQEPDGTIKRLIYATSSLDSGVPKRFSGSRSGSDYSLTISGLESEDFVDYYCLQYASSPFTFGGGTKLEINR
notes: mouse antibody, full chains without signal peptide; also called mouse hSIRPα.40A
Turning to B3, the half-maximal effective concentration (EC50 (read off the curve)) in experiment [3] is approximately 0.7 nM; in experiment [4], approximately 1 nM.

Values taken from patent US20180312587A1 (ADURO BIOTECH HOLDINGS EUROPE B V, published 2018).
